{"source": "paper PMC4255305", "target": "(R)-selective amine : pyruvate transaminase from Nectria haematococca, His-tagged (construct pQR1023) (Nectria haematococca)", "experiment": "SEC; Superdex 200 HiLoad 16/60 gel filtration, 50 mM Tris/HCl, 0.1 M NaCl pH 7.5, 1.0 mL/min; dimer from the elution volume", "data": [{"substance": "(R)-selective amine : pyruvate transaminase from Nectria haematococca, His-tagged (construct pQR1023) (enzyme)", "values": [{"measurement": "stoichiometry N", "value": 2}]}]}
